Experimental data: US20230137139A1, “BIOSYNTHESIS OF CANNABINOIDS AND C[…]” (priority 2020, published 2023)
Numbering of substitutions follows the chain as printed.

B1: t861551 (protein)
chain: MGNTTSIAGRDCLISALGGNSALAVFPNQLLWTADVHEYNLNLPVTPAAITYPETAEQIAGIVKCASDYDYKVQARSGGHSFGNYGLGGTDGAVVVDMKHFNQFSMDDQTYEAVIGPGTTLNDVDIELYNNGKRAMAHGVCPTIKTGGHFTIGGLGPTARQWGLALDHVEEVEVVLANSSIVRASNTQNQDVFFAVKGAAADFGIVTEFKVRTEPAPGLAVQYSYTFNLGSTAEKAQFVKDWQSFISAKNLTRQFYNNMVIFDGDIILEGLFFGSKEQYDALGLEDHFAPKNPGNILVLTDWLGMVGHALEDTILKLVGNTPTWFYAKSLGFRQDTLIPSAGIDQFFEYIANHTAGTPAWFVTLSLEGGAINDVAEDATAYAHRDVLFWVQLFMVNPLGPISETTYEFTDGLYDVLARAVPESVGHAYLGCPDPRMENAPQKYWRTNLPRLQELKEELDPKNTFHHPQGVIPA
B2: t861577 (protein)
chain: B1 chain with V25A, F193L, Q345E, A351D
B3: t861592 (protein)
chain: B1 chain with V25A, F193L, Q345E, A351D
B4: t861566 (protein)
chain: B1 chain with I14V, V25A, D107N, Q345E
B5: t861587 (protein)
chain: B1 chain with I14V, V25A, D107N, Q345E
B6: t861588 (protein)
chain: MGNTTSIAAGRDCLLSAVGGNHAHVAFQDQLLYQVTAVEPYNLNIPVTPAAVTYPQSADEIAAVVKCASEYGYKVQARSGGHSFGNYGLGGEDGAIVVEMKHFNQFSMDESTYTATIGPGITLGDLDTALYNAGHRAMAHGICPTIRTGGHLTMGGLGPTARQWGLALDHVEEVEVVLANSSIVRASNTQNQDILFAIKGAAASFGIVTEFKVRTEAAPGVAVQYSFTFNLGTPAEKAKLVKDWQAFIAQEDLTWKFYSNMNIFDGQIILEGIYFGSKEEYDALGLEKRFPSSEAGTVLVLTDWLGMVGHGLEDVILRLVGNTPTWFYAKSLGFTPRALIPDSAIDEFLNYIHENTPGTVSWFVTLSLEGGAINKVPGDATAYGHRDVLFWVQIFMINPLGPVSQTTYGFADGLYDVLAKAVPNSAGHAYLGCPDPRMPNAQQAYWRSNLPRLEELKGELDPKDIFHNPQGVMVVS
modifications: N- and C-terminal signal peptides
B7: t861568 (protein)
chain: MGNSASVAGRACFVAAVGHDPNLVTFRGDLLYEFRIQPSYNLAIPVHPTVVTYPKTTAQVAEIVSCAAAQNYKMQAYSGGHSYGNYGLGGEDGHVVVDLKNFQDFTMDPDTHVATIGAGTSLGDLQDRLWHAGGRAMAHGSCPQVGVGGHFTIGGLGMMSRQWGMSLDHVVEAQVVLANSSVVTASDTQNQDIFWAIKGAAASFGIVTKFKVRTHGVPKAAIQYQYTFSQGDVLDKVKLFMAWQNIVAKPNLTRNFSTELTIFQDGIMIMGSFFGTRDEFHKFELENDLPLQGLGNVAYITNWLSLVAHTAEDYLLRLTGNVLTSFYAKSLSFTADELFNEQGLVTLFTYLDAAPKGTPTWWVIFDLEGGATNDVPVNATSYAHRDAIMWMQSYAVAGFEPPGFIIKRFLNRLHGVVIGNRAPGAVRSYPGYVDPYLRNAQETYWGPNLARLQDIKTAVDPDDVFHNPQSVKVNSLSPPDPGSHDV
B8: t861567 (protein)
chain: MDSNTWEATFGSGFLLGELDKHLHANGNRAMAHGTCPGVGMGGHATIGGIGPSSRLWGTTLDHVLQVEVVTADGKIQRASKTQNPDLFWALQGAGASFGIITEFVVRTEPEPGSVVEYTYSVSLGKQSDMAPLYKQWQALVGDPSLDRRFTSLFIAEPLGVLITGTFYGTMYEWHASGIPDKLPRGPISVTVMDSLGSLAHIAEKTGLYLTNVPTSFASRSLALRQQDLLSEQSIDDLFEYMGSANADTPLWFVIFDNEGGAIADVPDNSTAYPHRDKVIVYQSYSVGLLGVTDKMIKFLDGVQDIVQRGAPNAHTTYAGYINPQLDRKAAQQFYWGDKLPRLQQIKKQYDPNNVFCNPQSIYPAEDMSDG
B9: t861562 (protein)
chain: MGNTTSIAAGRDCLISAVGGNAAHVAFQDQLLYQATAVEPYNLNIPITPAAITYPQSADEIAAVVKCASEYGYKVQARSGGHSFGNYGLGGEDGAIVVEMKHFSQFSMDESTYIATIGPGITLGDLDTELYNVGHRAMAHGICPTIRTGGHLTVGGLGPTARQWGLALDHVEEVEVVLANSSIVRASDTQNQDIFFAIKGAAASFGIVTEFKVRTEQAPGLAVQYSYTFNLGTPAEKAKLVKDWQAFIAQENLSWKFYSNMVVFDGQIILEGLYFGSKEEYDALGLEQRFPPSEAGNVLVLTDWLGMVGHELEDTILRLVGNTPTWFYAKSLGFTPRALIPDSAIDDLFNYIHENNPGTLAWFVTLSLEGGAINTVPEHATAYGHRDVLFWVQIFVINPLGPVSQTTYGFADGMYDVLAQAVPESAGHAYLGCPDPRMPNAQQAYWRSNLPRLEELKGDLDPKGIFHNPQGVMVVS
B10: t861563 (protein)
chain: MARVPALFLGLSSVCLLVFFCSLINPTTPLHQHGKQTSIAGRDCLVSALGGNTGLVAFQDQLLYQTTAVHEYNLNIPVTPAAITYPETSEQIAAVVKCASEYDYKVQARSGGHSFGNYGLGGADGAVVVDMKHFTQFSMDEQTYEAVIGPGTTLGDVDTELYNNGKRAMAHGICPTISTGGHFTMGGLGPTARQWGLALDHVEEVEVVLANSSIVRASNTQNQEVFFAVKGAAASFGIVTEFKVRTQPAPGLAVQYSYTFNLGSSAEKAQFVKDWQSFISAKNLTRQFYTNMVIFDGNIILEGLFFGSKEQYEALGLEDRFVPKNPGNILVLTDWLGMVGHALEDTILRLVGNTPTWFYAKSLGFTPDTLIPSSGIDEFFDYIENNKAGTLTWFVTLSLEGGAINDVPKDATAYGHRDVLFWVQIFMASPTGPVSSTTYDFADGLYNVLTKAVPESEGHAYLGCPDPKMADAQQKYWRQNLPRLEELKATLDPKDTFHNPQGILPA
B11: t861583 (protein)
chain: MGNTTSIAGRDCLISALGGNSALAVFPNELLWTADVHEYNLNLPVTPAAITYPETAAQIAGVVKCASDYDYKVQARSGGHSFGNYGLGGADGAVVVDMKHFTQFSMDDETYEAVIGPGTTLNDVDIELYNNGKRAMAHGVCPTIKTGGHFTIGGLGPTARQWGLALDHVEEVEVVLANSSIVRASNTQNQDVFFAVKGAAANFGIVTEFKVRTEPAPGLAVQYSYTFNLGSTAEKAQFVKDWQSFISAKNLTRQFYNNMVIFDGDIILEGLFFGSKEQYDALGLEDHFAPKNPGNILVLTDWLGMVGHALEDTILKLVGNTPTWFYAKSLGFRQDTLIPSAGIDEFFEYIANHTAGTPAWFVTLSLEGGAINDVAEDATAYAHRDVLFWVQLFMVNPLGPISDTTYEFTDGLYDVLARAVPESVGHAYLGCPDPRMEDAQQKYWRTNLPRLQELKEELDPKNTFHHPQGVMPA
B12: t861589 (protein)
chain: B11 chain

These molecules were tested on CBCA production (assay: In vivo TS activity assay, Example 4 CBCAS enzymes with and without signal peptides, no pH adjustment). Conditions: strains with (Y) or without (N) N-terminal and C-terminal signal peptides; no pH adjustment at Day 4; S. cerevisiae.
Format: cell-based
Experimental: An assay to detect TS activity was conducted as follows: each thawed glycerol stock of candidate CBCAS transformants was stamped into a well of YEP+4% dextrose media. Samples were incubated at 30° C. in a shaking incubator for 2 days. A portion of each of the resulting cultures was stamped into a well of YEP+4% galactose+1 mM olivetolic acid (FIG. 1 Structure 6a). Samples were incubated at 20° C. and shaken in a shaking incubator for 4 days. Every 24 hours during those 4 days, 2% galactose and 1 mM olivetolic acid were spiked into the cultures. Sodium citrate buffer adjusted to pH 5.5 was added to each well at a final concentration of 100 mM. Samples were incubated at 20° C. and shaken in a shaking incubator for 2 days. A portion of each of the resulting production cultures was stamped into a well of phosphate buffered saline (PBS). Optical measurements were taken on a plate reader, with absorbance measured at 600 nm and fluorescence at 528 nm with 485 nm excitation. Samples were incubated at 30° C. in a shaking incubator for 2 days. 100% methanol was stamped into the production cultures in half-height deepwell plates. Plates were heat sealed and frozen. Samples were then thawed for 30 min and spun down at 4° C. A portion of the supernatant was stamped into half-area 96 well plates. CBCA, THCA, and CBDA production in the samples was quantified via liquid chromatography-mass spectrometry (LC-MS).
A library of 20 CBCAS enzymes selected from Example 1 and 3 was synthesized, including versions of the CBCAS enzymes with and without the N-terminal MFalpha2 signal peptide (SEQ ID NO: 16) and C-terminal HDEL signal peptide (SEQ ID NO: 17). Each candidate enzyme expression construct was transformed into an S. cerevisiae CEN.PK strain that also expressed a prenyltransferase enzyme capable of catalyzing reaction R^4 in FIG. 2. Strain t861555 expressing the A. niger CBCAS identified in Example 1, carrying both the Mfalpha2 and HDEL signal peptides was included in the library screen as a positive control for enzyme activity. Strain t861565 expressed the same A. niger CBCAS without the Mfalpha2 and HDEL signal peptides.
The strains were screened using the assay described in Example 1 with the following exception: at Day 4 samples were not subjected to a pH adjustment and a further 2 days of incubation at 20° C.

| Molecule | Average CBCA [µg/L] |
| --- | --- |
| B1 | 17501.94 |
| B2 | 36869.19 |
| B3 | 74584.36 |
| B4 | 61918.09 |
| B5 | 82883.01 |
| B6 | 42686.95 |
| B7 | 0.00 |
| B8 | 0.00 |
| B9 | 55737.91 |
| B10 | 4821.60 |
| B11 | 59260.52 |
| B12 | 95796.21 |
